Results published in US8822640B2, “Tetrameric streptavidin mutein with reversible biotin binding capability” (UTI Limited Partnership, priority 2011, dated 2014).

Experiments:
[1] = data from U.S. Pat. No. 6,312,916 B1, cited from earlier work
[2] = test system: biotinylated protein G and biotinylated IgG; test: Mutein-agarose affinity matrix: purification of biotinylated proteins, matrix stability and reuse; conditions: comparison of FIGS. 7 and 10
Procedure: Other methods. BIAcore biosensor for determining the kinetic parameters, preparation of streptavidin-agarose matrix and purification of biotinylated proteins were performed as previously described (Wu and Wong, 2005a; Wu and Wong, 2005b).
Stable subunit interactions in the 8-aa-loop-H127 mutein. The purified 8-aa-loop-H127C mutein can be immobilized to the agarose matrix with an estimated concentration of 3.8 mg/ml of settled agarose beads. […] Since it is likely that only one subunit in an tetrameric 8-aa-loop-H127C mutein was chemically coupled to the matrix (the other three subunits associated with the immobilized subunit via non-covalent interactions), this observation illustrates that the subunit interactions between the subunits in the tetrameric 8-aa-loop-H127C mutein were stable enough and the non-covalently associated subunits were not washed off from the column under the conditions used for the binding, washing and elution processes.
Application of the 8-aa-loop-H127C mutein-agarose matrices for purification of biotinylated protein G and biotinylated IgG. […] The bound biotinylated proteins could be eluted off from the column using 4 mM biotin (FIGS. 7 and 8).

[3] = Biotin binding data taken from literature / U.S. Pat. No. 6,312,916 B1; conditions: for t1/2, half-life of biotin in the SAV-biotin complex: estimated as 0.693/koff/60 from the cited koff

- t1/2, half-life of biotin in the SAV-biotin complex [3]: 1.96 min
- t1/2, half-life of biotin in the SAV-biotin complex ([3]; listed as Roche mutein): 1.9 min
- biotin binding affinity lower than that of the 8-aa-loop-H127C mutein ([3]; ratio of Kd values): ~10 fold
- half-life of biotin in the SAV-biotin complex shorter than that of the 8-aa-loop-H127C mutein ([3]; ratio of t1/2 values): ~14 fold
B1: SAV mutein from Roche: commercially available streptavidin mutein with reversible biotin binding, changes S27R, S45R and L110W (U.S. Pat. No. 6,312,916 B1) (protein)
chain: AEAGITGTWYNQLGRTFIVTAGADGALTGTYERAVGNAESRYVLTGRYDSAPATDGSGTALGWTVAWKNNYRNAHSATTWSGQYVGGAEARINTQWLWTSGTTEANAWKSTLVGHDTFTKVKPSAAS
- ka or kon [1]: 45000 M⁻¹ s⁻¹
- kd or koff [1]: 0.0059 s⁻¹
- Kd ([1]; read-out: Kd (biotin binding affinity)): 130 nM
- binding capacity of the matrix for biotinylated protein G [2]: significantly less than that of the 8-aa-loop-H127C mutein
